Source: patent publication US20200299389A1 (AP BIOSCIENCES, published 2020)

Tests used:
[1] = target: T1, murine PD-L1 (murine, UniProt Q9EP73 19-238, limits assumed); experiment: not described
T1 construct: also called rodent PD-L1

[2] = target: recombinant PD-L1 protein (UniProt Q9NZQ7 19-238, limits assumed); experiment: direct ELISA on coated recombinant PD-L1, anti-human F(ab')2-HRP detection
recombinant PD-L1 protein, sequence (Q9NZQ7 19-238 limits assumed): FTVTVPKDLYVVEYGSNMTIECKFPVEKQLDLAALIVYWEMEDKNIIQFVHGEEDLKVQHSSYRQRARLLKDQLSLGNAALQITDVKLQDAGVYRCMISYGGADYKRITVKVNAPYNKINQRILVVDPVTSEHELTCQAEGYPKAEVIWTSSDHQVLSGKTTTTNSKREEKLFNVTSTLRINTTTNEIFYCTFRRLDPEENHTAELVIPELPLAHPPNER

T1 sequence (Q9EP73 19-238 limits assumed): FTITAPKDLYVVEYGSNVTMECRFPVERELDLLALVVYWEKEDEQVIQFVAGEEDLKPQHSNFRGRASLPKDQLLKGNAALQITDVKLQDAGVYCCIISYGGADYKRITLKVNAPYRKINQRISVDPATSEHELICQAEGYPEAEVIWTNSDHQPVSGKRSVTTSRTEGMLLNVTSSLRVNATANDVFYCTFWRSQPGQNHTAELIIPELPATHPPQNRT

B1: anti-PD-L1 antibody clone 6 (antibody, V domains shown)
VH: QVQLVQSGAEVKKPGSSVKVSCKASGGTFRRYSISWVRQAPGQGLEWMGGIIPVFGAAKYAQKFQGRVTITADEFTSTAYMELSSLTSEDTAVYYCALSGDSDAFDIWGQGTMVTVSS
VL: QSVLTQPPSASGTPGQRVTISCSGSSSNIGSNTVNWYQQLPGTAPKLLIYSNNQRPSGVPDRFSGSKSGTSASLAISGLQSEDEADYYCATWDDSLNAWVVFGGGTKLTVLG
notes: also called PD-L1-Clone 6; anti-PD-L1 clone 6 antibody
**Q.** What does the source list for B1?
**A.** binding result [1]: no binding; EC50 [2]: 0.1 nM
